Laboratory results taken from the DeepSol protein solubility set.

Assay: soluble on expression in E. coli; label from the status in PepcDB or PDB records

Sequence | soluble on expression in E. coli
MGSDKIHHHHHHMVLIRLRPCSAVEKDLIHACSPSASALVSKNEKAMKRFFLTTAILLSSVLASYADSLPSAVRDTVIRAGEKTIMIKDGEDDFEVIIQESMPSGDTIRNEKIFRGVYRNGRSIEQRFRNTLINRPNRDKEMPVWGTYGFGSFEWGELKVDDSHSDIGRSHSYRVSIQIFGDIYRLNKYLVLTYALGWDADIYRITDSKTLKNIDGVTTVVDVPGRAECTLTAAYLKAMPALAFNGVRSNLTVYIAPVLRAKVYSAATTDGPDGRLEKLRRVKLNTFSVEARAGINYRNAGIFFTYSLTPLFRSGKGPKLHPYTIGLSLSL | not soluble
MDLSTSGSLPCHLPLSLLTNLQTPPIDTSFSSPPATSSSSLLSPSPSSAFRPVVPKSLMNPQPAMDTFYMSAIQSLVVSTTNDDQYSEHGALEGSKSLAKDENASTSAGTILCQVCSDKASGFHYGVFACEGCKGFFRRSIQQKITYRACTRAEDCLILRNNRNRCQCCRLKKCLAVGMSRDAVRFGRVPKREKARMFEEMQKTNVQSQRDQIAIQYENLTEVMHKINQAFGTLQATLEKCTGPIYTDRCPITSNFIVIPLKAAIDFANSIPAFLSITQTQRVHLLQNSVFDVMLLASASASTSQHFPPGGLTYDQSSANPIIPQAIQSISARIRQLPPQTVPILTAIAVCQADLLPESQQPMLLAERLWCVLGKLGGIQSLATAPSLLADVRTLRQWHSDRLRQMSQISQHFSQNLLIAPVAAAAPVLLPPAFLSPPASATSTSSSSVKSEFIERHPSIASLLERPRRISSSGAQEPLNLSLPHVRHQVKRDVDSDEQLEEMKVSPVPTTLSE | not soluble
MGHHHHHHSHAWSGVLEWQEKPKPASVDANTKLTRSLPCQVYVNHGENLKTEQWPQKLIMQLIPQQLLTTLGPLFRNSRMVQFHFTNKDLESLKGLYRIMGNGFAGCVHFPHTAPCEVRVLMLLYSSKKKIFMGLIPYDQSGFVNGIRQVITNHKQVQQQKLEQQQRGMGGQQAPPGLGPILEDQAR | soluble
MGSDKIHHHHHHALPDPVKPKAPKAVNPFHLGMAGYTFVNFDLDTTLKTLERLDIHYLCIKDFHLPLNSTDEQIRAFHDKCAAHKVTGYAVGPIYMKSEEEIDRAFDYAKRVGVKLIVGVPNYELLPYVDKKVKEYDFHYAIHLHGPDIKTYPDATDVWVHTKDLDPRIGMCLDVGHDLRNGCDPVADLKKYHTRVFDMHIKDVTDSSKAGVGIEIGRGKIDFPALIRMMREVNYTGMCSLEYEKDMKDPFLGIAESIGYFKAVSDLT | not soluble
MGSDKIHHHHHHMNTNTSITIQKPKTDELLLWNLLFADTGRQVLLVAYDIKLFPLLSQKPCTLAEICNELKIFQRPAEAILAVLASIELLEIENNYYSLTLLAKDYLVKSSPTYFGALLEMMIFDERKHISSFDSLKKSLFTNNYPGKKVMESLVKNHDFMRTITFGNNVKLIRGFISSMHGPSMAAALIWPELIDLSEYKLFIDIGGGSAAHSIGATLKWPNLQAVVLELPTVCEIAQEFITHYGLQNRIATQEFDMWSDTFPVGDLHFYSAVYHHWQQEKCQVITKKSFNSLLPGGRIILHEMLFNEQKTGPFPVAAKNLNISLKLGGQQYSGQELSMMLEQAGFIDIEIKPASSYWSIITGRKP | not soluble
MSLKVDSFSLPLSSPLATARETISQRSGFVVRYDHRGETGVGEATPLPGWTESLDDCQRGLNDAATVAAGGGHTDVLLSLDAASVPAARHGFATALLDADARADGVPLYQWFDSERHCNRVPVNATVGDGSPAETADAVERAVEAGYDCCKMKVGKRTVDEDVARVRTVRERVGDDVTLRADANGAWSRDRAQEAFDRLAPLDVAYVEQPLPADDLTGHAGLRGNGVGVALDESLVDRRVDSVLDADAADVLILKPMVLGGPGNAHTLALRAREQGVEPVVTTTIDAVVARLAALHVAAAIPDVAACGLATGDRLAADLAPDPTTVTDGAMSVPQSTGLGIDPTEVGTDAEGHHHHHH | soluble
MGNKQTIFTEEQLDNYQDCTFFNKKDILKLHSRFYELAPNLVPMDYRKSPIVHVPMSLIIQMPELRENPFKERIVAAFSEDGEGNLTFNDFVDMFSVLCESAPRELKANYAFKIYDFNTDNFICKEDLELTLARLTKSELDEEEVVLVCDKVIEEADLDGDGKLGFADFEDMIAKAPDFLSTFHIRI | not soluble
MPKLSIIIPAYNNAHLLPETLDSIFSQDCEPFELIVVDDGSTDNTRDVVEGYGRGIVYLWQENSGGCSKPRNVGIRHATGEYIAMFDSDDIMKPGKVRSQMDFLDRNPDVDFVFTDFCDFRGAEVLASHITTCPIFNSLPKQKVGEDAYVISSTAAYETLLVENFIGGSAMMFRKSLFNEAGPFDETLEVSEDIDFTLRVARTHALGFINRIGHHRRLHDGNMTSKAEKILTRSLRVFGGHLSAPKSSKAQQRLIDKVAGLHGALAYHYRENARYGEALAEYRASLSLRPACLGTYKAMAKLAVMALTSGGKLEHHHHHH | soluble
GMDELELRIRKAEKLVQDAKKEFEMGLYERCCSTAYYAMFHAAKAMLLGYGRDSKTHRGTIYLIWECREELGLSDDDCSKLSRAFDLREESDYGIYKEVSKDLAIKILKDAEIFVQKAKNAVNKNR | soluble
GYDGVRIGQGYDIHQIRVGPPEDIVADTTADTAANTADPNKQSFKRLTIGGVPVETISVLSHSDGDVIFHALVDALLGGMSCSDLGTLFPDGSPKYKNKNSLSFLRYARLLLYKRNYAIANVDIIVIAEVPKISPIREEIVRNISSALGISESQVSLKGKTHEQLGPVGQKKAIECFANALLIRKQS | soluble
MKIGVDAGGTLIKIVQEKNGERTYSTRLTTEIEEVIQWLNQQDCNNINLTGGQAAMINEQLNCESRVFVEFDAAAKGLEILLEEQGHFLDDYIFTNVGTGTSLHFSNGKAQKRVGGIGTGGGMIQGLGYLLTGISNYKQLTDTAQNGNRDIIDLKVKHIYKDSEPPISGDLTAANFGNVLHHLDESFTDADKLASVIAVVGEVITTMSITVAREHNTKNVAYIGSSFHNNDLLKDVVKDYTVLRGCEPYYIEHGAFSGALGSIHLLEHHHHHH | not soluble
GSHMSQSFGRVLTIVHSDCALLERDGNISLLSLPVAERWLRQAQLTPGEAPVCAQPLLIPLRLKVSAEEKSALEKAQSALAELGIDFQSDAQHVTIRAVPLPLRQQNLQILIPELIGYLAKQSVFEPGNIAQWIARNLMSEHAQWSMAQAITLLADVERLCPQLVKTPPGGLLQSVDLHPAIKALKDE | soluble
MSISQNNFLTMFPVTYTFENGVYSTIINQNTIQTPIPNPIQHHIQNHIQTSIPNTNLLLENVQTDVQKLMVPLIDQQFHIPTSTPLQLAPIPTQIQSQLQPQISQIPIHNQPQIQIQSQVQPQLPTQSQPKPSSKASLDTSSNAFKKYVNPFAPEATVPLPVELEDQYGPYSSSVWKRNERERCRVRNVNDGYERLRKHLPVHFDEKRISKVDTLRLAIRYIKHLDNLLRSELHQYNCKCFNGFQEESEGNILIDISTFNFNSSNNAM | not soluble
MARGIWGVDSAQVVTDQLFQCVRTELGYPKFWGRYLSEVPNVSEGLTRDEIVRIRNYGVKVLPIYNAFREAVGYANGQVAARNAVFHARRLGIPKNKLLFANIEDFFAVDAAWIAAWVETLYPTGYRPGLYADPTKGDFAAAYCEAVSRNNQVAVQAVIWSAAPRPGTTKEQKAPRYQPAAPPCSANVWVWQYGRDAEVCPVDTNLADRRLLDFLY | soluble
MAHHHHHHSLKIRQARLEDLDRIVELEFENFSVEEAIPPSVFEAHLREIQTSFLVAEKEGRIMGYIEGPVGLHRHLQDQSFTEEIKDYSHEPGGYISVTCLSIAKEAQGLGLGQKLLTALKEVALEDERDGINLTCHDYLIAYYEKHGFVNEGQSQSTFAGETWYDMVWEMKKEG | not soluble
MEPLKHECGIAMVRLRKPLSYYHDKYGTWMYGLNKLYLLMEKQHNRGQEGAGLAVVKLNSRPGEEYLFRERALGANAISEIFDSVHKDFQAYSREELGDAEFAASQIPYAGECYMGHLRYSTTGKSGLTFVHPMIRRSNWRAKCLSICGNFNLTNVDGIFDEITSVGQHPRNMSDTHILLEQIGHRLDREVERLFRIGKEQNLKGMDITHFIEERIDLSNVLKKCSPFWDGGYVMCGLTGSGESYAVRDPWGIRPAFYYIDDEIVVTASERPVIQTVMNLSAEAVRELMPGEAIFVNSKGEPRIERILETKNYQACSFERIYFSRGSDQDIYRERKALGYLLSERILRAIDYDISHTVFSFIPNTAEVAYYGMLEGIDHYLDECKIREIRENPNMSEAKLREILGRKVRSEKVAIKDIKLRTFITEGNSRNDLAAHVYDITYGTVQAGVDNLVVIDDSIVRGTTLRQSIIGIMDRLQPKKIVIVSSSPQIRYPDYYGIDMRKMREFVAFRSAVALLQERGMEQVLHDAYAKALELRKLSSGQEVENVVKTIYKPFTAEEISAKMVELLKPEGVRAKVEIVYQSLEGLHQAIPNHPGDWYFSGDYPTPGGAHLVNEAFISYMEEDYGK | not soluble
MGSDKIHHHHHHLLYRTIMVGENLESMQCEKYFESLFDVDFDYLVGLGKEMPTILFIDASKYSKDVLNDWIFAFTNIILINNNPIRAFIIRGYSEELQEFKGYYRVVSSYKSPRQIVQEIISNVNDHLDKMIGNSSRVIQMKKMLVLSMFYDGSIMILGETGSGKNLLAEVIAKLSPRGSRPFYSINCAAIPENLLESEIFGYKKGAFTGATSEKVGLIEQANNGTLFLDEIGDMPLNLQAKILAITENREFFKIGATRPIKVDVRFITATNRYDDSAMRNDLRYRLSAVKIDLPPLRERKSDISLIFDEILEKKGYLVKFENIPQDLKERFLSYSYPGNVRELINMIEEYLAVNDVVQASVNSSMSKYVKVLAEEAIVARMVNGTSYKDFLQEVYKSVSQELLLQRSEVLKNDINEIAREFGLTTRRIRDLLAELNSSAKALTPNDDDE | not soluble
MEAVWGILPKTVAAALQHHLPSCRRGIEEIRIRVSRPLEVIVDGTARLLPYEVTKEDGVHLLNKLSHYSIYAVEEELKRGFMTIEGGHRVGLAGKVITEGGKVKAIRDVSSFNIRIAKEQIGISEPLIPYVYDGRWRHTMIIGSPQTGKTTLLRDAARLISSGTGRIPAQKVAIVDERSEIAGCVKGIPQFSFGPRLDVLDACPKAEGMMMMIRSMSPDVMIVDEIGREEDSEAVLEAANAGVSVWTTVHGRNIQDVWQRPTLGPVMEQKVFERFIELTNIPHPGSIRRILDAGGTVLYERAVVHR | not soluble
SAAEEEDEVEWVVESIAGFLRGPDWSIPILDFVEQKCEVFDDEEESKLTYTEIHQEYKELVEKLLEGYLKEIGINEDQFQEACTSPLAKTHTSQAILQPVLAAEDFTIFKAMMVQKNIEMQLQAIRIIQERNGVLPDCLTDGSDVVSDLEHEEMKILREVLRKSKEEYDQEEERKRKKQLSEAKTEEPTVHSSEAAIMNNSQGDGEHFAHPPSEVKMHFANQSIEPLGRKVERSETSSLPQKGLKFPGLEHASIEGPIANLSVLGTEELRQREHYLKQKRDKLMSMRKDMRTKQIQNMEQKGKPTGEVEEMTEKPEMTAEEKQTLLKRRLLAEKLKEEVINK | soluble
MSITEDIDDLKTAIENNEPIRKGIEETMHRASQIRIKQRYNCAEQEVTQMRAPFLGFSVFVRFQSRARAHTIKIINEDEVEQMLASSPVPYS | not soluble
WSYEHLHLTNRIKLLYAPTFRDNELGMAKLHLDIAEMKQALGNEYQLILKLHPSISNDLEKLDDDFVIYVDKETPIETLLPVVDILITDYSSIPFEFALLQKPMIFFTYDLTEYNNARGLSDGFLETIPGPHVFTTTELIEVIQNNTFDLEKVRLFAEKWNKYSDGFSSERFVSFLKE | not soluble
